Each block holds one binder with its values, some of them ahead of it.
Columns and labels:
[1] = target: T1, Recombinant human bone morphogenetic protein 2 (BMP2) (human, UniProt P12643 283-396); assay: SPR
T1 chain: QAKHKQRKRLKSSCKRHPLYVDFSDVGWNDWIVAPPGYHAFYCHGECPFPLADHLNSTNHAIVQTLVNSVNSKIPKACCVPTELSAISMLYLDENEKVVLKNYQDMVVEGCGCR

[2] = target: T2, Recombinant human bone morphogenetic protein 4 (BMP4) (human, UniProt P12644 293-408); assay: SPR
T2 chain: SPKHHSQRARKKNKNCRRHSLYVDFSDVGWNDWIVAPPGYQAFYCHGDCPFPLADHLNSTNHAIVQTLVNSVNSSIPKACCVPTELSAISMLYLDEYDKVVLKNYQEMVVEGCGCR

[3] = target: T3, Recombinant human bone morphogenetic protein 7 (BMP7) (human, UniProt P18075 293-431); assay: SPR
T3 chain: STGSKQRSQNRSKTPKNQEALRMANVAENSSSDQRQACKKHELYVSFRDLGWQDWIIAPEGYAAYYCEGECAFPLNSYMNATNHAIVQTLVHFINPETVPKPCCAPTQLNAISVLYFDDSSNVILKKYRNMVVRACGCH

[4] = target: T4, Recombinant human interleukin-34 (IL34) (human, UniProt Q6ZMJ4 21-242); assay: SPR; BMP2, BMP4 or BMP7 immobilised (1500-2300 RU) on CM5-S chip by amine coupling at pH 4.5; IL34 injected in one cycle titration (12.5-200 nM, 60 s, 100 µL/min), 600 s dissociation; T200, 25 °C, PBS pH 7.4 with 0.05% P20; bivalent fitting model; details: both partners purified
T4 construct: Interleukin-34, human, recombinant; source: bought: R&D Systems
T4 sequence (looked up): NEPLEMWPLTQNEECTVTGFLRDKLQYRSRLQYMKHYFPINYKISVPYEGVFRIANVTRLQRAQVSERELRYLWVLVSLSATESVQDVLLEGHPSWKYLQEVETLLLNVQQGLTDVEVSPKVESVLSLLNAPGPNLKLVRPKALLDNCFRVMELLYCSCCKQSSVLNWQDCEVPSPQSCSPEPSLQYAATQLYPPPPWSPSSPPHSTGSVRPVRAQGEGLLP

[5] = target: T4, Recombinant human interleukin-34 (IL34); assay: SPR; receptors captured on immobilized anti-human Fc; IL34 injected (18.75, 37.5, 75, 150, 300 nM); T200, 25 °C, PBS pH 7.4 with 0.05% P20; steady-state fitting model; details: both partners purified

B1: Recombinant human interleukin-34 (IL34) (ligand)
chain: NEPLEMWPLTQNEECTVTGFLRDKLQYRSRLQYMKHYFPINYKISVPYEGVFRIANVTRLQRAQVSERELRYLWVLVSLSATESVQDVLLEGHPSWKYLQEVETLLLNVQQGLTDVEVSPKVESVLSLLNAPGPNLKLVRPKALLDNCFRVMELLYCSCCKQSSVLNWQDCEVPSPQSCSPEPSLQYAATQLYPPPPWSPSSPPHSTGSVRPVRAQGEGLLP
koff [1]: 0.0229 s⁻¹ | koff [2]: 0.0467 s⁻¹ | koff [3]: 0.0561 s⁻¹

B2: Recombinant human bone morphogenetic protein 2 (BMP2) (ligand, UniProt P12643 283-396, looked up)
chain: QAKHKQRKRLKSSCKRHPLYVDFSDVGWNDWIVAPPGYHAFYCHGECPFPLADHLNSTNHAIVQTLVNSVNSKIPKACCVPTELSAISMLYLDENEKVVLKNYQDMVVEGCGCR
notes: Bone morphogenetic protein 2, human, recombinant; source: bought: R&D Systems
Kd [4]: 363 nM

B5: Human Activin RIIB receptor (ActRIIB) (Fc fusion, UniProt Q13705 19-137, looked up)
chain: SGRGEAETRECIYYNANWELERTNQSGLERCEGEQDKRLHCYASWRNSSGTIELVKKGCWLDDFNCYDRQECVATEENPQVYFCCCEGNFCNERFTHLPEAGGPEVTYEPPPTAPTLLT
notes: Activin receptor type-2B, human recombinant; source: bought: R&D Systems
binding result [5]: binds

The next lines start with the values.

Kd [4]: 426 nM
B3: Recombinant human bone morphogenetic protein 4 (BMP4) (ligand, UniProt P12644 293-408, looked up)
chain: SPKHHSQRARKKNKNCRRHSLYVDFSDVGWNDWIVAPPGYQAFYCHGDCPFPLADHLNSTNHAIVQTLVNSVNSSIPKACCVPTELSAISMLYLDEYDKVVLKNYQEMVVEGCGCR
notes: Bone morphogenetic protein 4, human, recombinant; source: bought: R&D Systems

Kd [4]: 922 nM
B4: Recombinant human bone morphogenetic protein 7 (BMP7) (ligand, UniProt P18075 293-431, looked up)
chain: STGSKQRSQNRSKTPKNQEALRMANVAENSSSDQRQACKKHELYVSFRDLGWQDWIIAPEGYAAYYCEGECAFPLNSYMNATNHAIVQTLVHFINPETVPKPCCAPTQLNAISVLYFDDSSNVILKKYRNMVVRACGCH
notes: Bone morphogenetic protein 7, human, recombinant; source: bought: R&D Systems
